From the supplement of paper PMC9170038

Test system: MS2 coat protein
Test: apparent KD of MS2 coat protein; designed switch direction (-1 OFF switch, 1 ON switch): -1; higher = weaker reporter binding
Summary of the method: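 RNA switches sharing common flanks were transcribed by stalled E. coli RNA polymerase on Illumina chips. A doubling series of SNAP-549-labelled MS2 coat protein, from 0.7 or 1.5 nM to 3 µM, was applied in Tris-HCl pH 7.5 buffer with KCl, MgCl2, BSA, DTT, tRNA and Tween-20. Each step lasted 0.8–1.5 h at the bottom of the series and 10–20 min at the top. Normalised cluster fluorescence was curve-fitted, giving apparent KD as the per-design median over clusters.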

[1] = input ligand: microRNA oligo, concentration not stated
[2] = Eterna round: R95, input ligand: FMN 200 uM
[3] = Eterna round: R95, input ligand: microRNA oligo, concentration not stated
[4] = Eterna round: R95, input ligand: none

| Sequence | apparent KD of MS2 coat protein (input ligand: FMN 200 uM) [nM] | apparent KD of MS2 coat protein (input ligand: none) [nM] | apparent KD of MS2 coat protein [1] [nM] | apparent KD of MS2 coat protein [2] [nM] | apparent KD of MS2 coat protein [3] [nM] | apparent KD of MS2 coat protein [4] [nM] |
| --- | --- | --- | --- | --- | --- | --- |
| GUAUAGUGAGUCAGGAUAUUAGAGGACCAGUUUCCUAAGAAGGGACAUGAGGAUCACCCAUGUGCAUAGGACGU [Eternabot (Original) Solution 20] (Eterna round: R97, puzzle: Brourd's mod of Exclusion 4) | 20.7 | 23 | – | – | – | – |
| GUAUAUGAUGUAGGAUAUACGAGACAUGAGGAUCACCCAUGUGAGGGAAGGAGAAGGAGAAGAGAGUAGAAGGAUAGAGUGUGA [Default title] (Eterna round: R96, puzzle: Exclusion NG 2) | 69.3 | 80.6 | 45.7 | – | – | – |
| GUAUGGUGAGGAUAUCGCCCUGCCUGCUCAAAGGCGAUGGACGAGAAGGCACAUGAGGAUCACCCAUGUCUGGG [Eternabot (L2) Solution 65] (Eterna round: R97, puzzle: Exclusion 4) | 161 | 539 | – | – | – | – |
| GUAUGUGGUAAGGAUAUGCAUAAAACCCGCUCCGCAGAAGGUACCACAUGAGGAUCACCCAUGUGAUACCAAUA [EX6 A.16] (Eterna round: R97, puzzle: Exclusion 6) | 16.1 | 14.3 | – | – | – | – |
| GUAUGUUAUGAGGAUAUCGGUGAACAUACACAUCGAGAAGGCAUGACAUGAGGAUCACCCAUGUCAAGGAUGAA [Exclusion 6 - B - 18:a] (puzzle: Exclusion 6) | – | – | – | 34.1 | 16.9 | 18.3 |
| GUCACAUGGACAUAGGAUCACAUGAGGAUCACCCAUGUGACUAACAAGCUUUUUGCUCGUCUUAUGUCCAUGUGAAG [Stov1/15-A1] (Eterna round: R97, puzzle: Sensor, turn-off variant 1) | 13.2 | 11.7 | – | – | – | – |
| GUCACAUGGGUGUAGAAUCACAUGAGGAUCACCCAUGUGACUAACAAGCUUUUUGCUCGUCUUAUGUCUAUGUGAAU [Stov1/17-A2] (Eterna round: R97, puzzle: Sensor, turn-off variant 1) | 23.3 | 37.2 | – | – | – | – |
| GUCACUAGAGGAUAUACAAUGGUAUAUGAUCCUAGAGACAAACAUGAGGAUCACCCAUGUAGAAGGCUAGUAUU [Exclusion 2 - 4] (puzzle: Exclusion 2) | – | – | – | – | 93.4 | – |
| GUCAGACGAGGAUAUAAAUUUGAUAACAUGAGGAUCACCCAUGUGAUCGAUAGAUCAAAUUUAGAAGGUGUCUGAC [E5/7-B3] (Eterna round: R97, puzzle: Exclusion 5) | 487 | 501 | – | – | – | – |
| GUCAGCUCGUCAGGAUAUACAUGAGGAUCACCCAUGUGAUCAAUAGCAGCUUCGGCUGCAUACAUGUAGAAGGGACGAGCUGAC [ENG2/6-B1] (Eterna round: R96, puzzle: Exclusion NG 2) | 55.6 | 35.5 | 18.4 | – | – | – |
| GUCAGCUCGUCAGGAUAUACAUGCGUGCUUCGGCACGAAUUUAAGAUCACAUGAGGAUCACCCAUGUAGAAGGGACGAGCUGAU [ENG2/3-B2] (Eterna round: R96, puzzle: Exclusion NG 2) | 819 | 600 | 441 | – | – | – |
| GUCAGCUCGUCAGGAUAUAUAUACAUGAGGAUCACCCAUGUAAGAUCAGGCUUCGGCCAAUGUAUAUAGAAGGGACGAGCUGAU [ENG2/11-B2] (Eterna round: R96, puzzle: Exclusion NG 2) | 721 | 810 | 458 | – | – | – |
| GUCAUCACACAUGGGAUCAACAUGAGGAUCACCCAUGUUGCCAAGUUGUUUGCACGUCUUAUAAUACGUUUUUCGAG [Mod-Jxg] (Eterna round: R97, puzzle: Sensor, turn-off variant 1) | 21.6 | 28.2 | – | – | – | – |
| GUCAUCUAUCAUGGGAUAAACAUGAGGAUCACCCAUGUAUACAAGUUUUUUGCUCGUCUUAUAAUAAGAUAGAUGAC [Antenna 4 - Jieux - Sensor, turn-off variant 1] (Eterna round: R97, puzzle: Sensor, turn-off variant 1) | 16.6 | 16.1 | – | – | – | – |
| GUCAUGUUAGGAUAUCAAACAUGUGACUUCGGUCACUGUCCUGAGAAGGAACAUGAGGAUCACCCAUGUUGGAC [Ex4-3: 57] (puzzle: Exclusion 4) | – | – | – | – | 16.2 | – |
| GUCCGACAUGAGGAUCACCCAUGUGAGGAUAUACGAUUAGCUGCUAGGUAGUUAGUAUGUAGAAGGUGCAUGAA [EX1 #74] (Eterna round: R97, puzzle: Exclusion 1) | 30.1 | 17.5 | – | – | – | – |

| Sequence | apparent KD of MS2 coat protein (input ligand: FMN 200 uM) [nM] | apparent KD of MS2 coat protein (input ligand: none) [nM] | apparent KD of MS2 coat protein [1] [nM] | apparent KD of MS2 coat protein [2] [nM] | apparent KD of MS2 coat protein [3] [nM] | apparent KD of MS2 coat protein [4] [nM] |
| --- | --- | --- | --- | --- | --- | --- |
| GUCCUCUUGACAUGAGGAUCACCCAUGUUUUAUUUGUUAACUGAGGAUAUACUCUUAUUUUUUAUGUAGAAGGCAGUUUUGUUC [JR_ExcNG3_Sub023] (Eterna round: R96, puzzle: Exclusion NG 3) | 82.6 | 26.3 | 22 | – | – | – |
| GUCGUGCAGCUUUGCUGUACGAGUACAUGAGGAUCACCCAUGUAGGAUAUGGUACGCUUUGCGUGCUAGAAGGAUAUGUGUAGC [salish99_ExNG3_r04_503] (Eterna round: R96, puzzle: Exclusion NG 3) | 44.8 | 37.1 | 29 | – | – | – |
| GUCGUGCGGCUUUGCUGUACGAGUACAUGAGGAUCACCCAUGUAGGAUAUGGUUCGUUUUGCGUGCUAGAAGGGCGUGCGUUUU [Excl-NG3-LRO16] (Eterna round: R96, puzzle: Exclusion NG 3) | 22.4 | 22.1 | 17.3 | – | – | – |
| GUCUCGUCAGGAUAUGACGCUACAUUUUCUUUUUAGAAGAGUCAGAAGGGACAUGAGGAUCACCCAUGUGAUUC [Ex4 - 3 - 3] (puzzle: Exclusion 4) | – | – | – | – | 310 | – |
| GUGAGAUAGUUAGUGGCCGACAUGAGGAUCACCCAUGUGAGGGAAAUGUUGAGGCGAAAGCUUUUUGCUCGUCUUUA [JR_SV3TOV1_Sub037] (puzzle: Sensor v3, turn-off variant 1) | – | – | – | 30 | 139 | 34.8 |
| GUGCAGGUAGGAUAUCCACCGGCAAACAUGAGGAUCACCCAUGUGACGCUCCCUUGUCUUGGAGAAGGGCCGGCAU [Xetemaaren] (puzzle: Exclusion 5) | – | – | – | – | 25.2 | – |
| GUGCGGUGAGGAUAUACGUAGGUGAAAAUCUGUGUGCUCCUACAUGAGGAUCACCCAUGUAGAAGGCAUGUCAC [LRO-Excl2-15] (puzzle: Exclusion 2) | – | – | – | – | 14.7 | – |
| GUGGUGACAGGAUAUACAUGAGGAUCACCCAUGUGAGGAGGACGAGACAGGUGAAGGAGUAGAAGGGUCAGAGG [JR_Exclu3_Sub027] (puzzle: Exclusion 3) | – | – | – | 66.7 | 74.5 | 60.3 |
| GUGUAAGGAGGAUAUACAUGAGGAUCACCCAUGUGAAUAAGAUAGAAUAAGAUAAAGUGUAGAAGGCUUAGUGU [Excluse me!!! 25 - Jieux - Exclusion 3] (puzzle: Exclusion 3) | – | – | – | 39 | 38.6 | 44.7 |
| GUGUACGAAGGAUAUACAUGAGGAUCACCCAUGUGAAUAAGAUAGAAUAAGAUAAAGUGUAGAAGGUCGAGUGU [Excluse me!!! 7 - Jieux - Exclusion 3] (puzzle: Exclusion 3) | – | – | – | – | 27.1 | – |
| GUGUACGGAGGAUAUAUGUGGGCAGCAUACGCUGCAGCUUCACAUGAGGAUCACCCAUGUAGAAGGCUGUGCAC [JL-ex2-2.11 Brourd mod] (puzzle: Exclusion 2) | – | – | – | – | 20.1 | – |
| GUGUAGCAAGGAUAUACAUGAGGAUCACCCAUGUGAAUAAGAUAGAAUAAGAUAAAGUGUAGAAGGUGCAGUGU [Excluse me!!! 8 - Jieux - Exclusion 3] (Eterna round: R96, puzzle: Exclusion 3) | 44.9 | 41.6 | 31.5 | – | – | – |
| GUGUAGCAAGGAUAUACAUGAGGAUCACCCAUGUGAAUAAGAUAGAAUAAGAUAAAGUGUAGAAGGUGCAGUGU [Excluse me!!! 8 - Jieux - Exclusion 3] (puzzle: Exclusion 3) | – | – | – | – | 36.6 | – |
| GUGUAGUCAGGAUAUACAGAGGAAGAUAAUACAAUAUAAGUACAUGAGGAUCACCCAUGUAGAAGGGACAGUGU [Excluse me!! 10 - Jieux - Exclusion 2] (puzzle: Exclusion 2) | – | – | – | – | 25.7 | – |
| GUGUGCAGAGGAUAUACAUAGGAAAAUAAAAGAGAAGUGGGACAUGAGGAUCACCCAUGUAGAAGGCUGAGUGU [Excluse me!! 22 - Jieux - Exclusion 2] (puzzle: Exclusion 2) | – | – | – | 89.9 | 73.7 | 72.8 |
